Results on 5 molecules are retold here after ChEMBL document CHEMBL3826949, “Characterization of the action of tyrosinase on resorcinols” (Bioorg Med Chem, 2016).

Active and inactive are the calls of the source. The rule behind the calls is not given here.

The target in data set [1] is T1, Tyrosinase (Agaricus bisporus, UniProt O42713).
T1 sequence (O42713 whole entry): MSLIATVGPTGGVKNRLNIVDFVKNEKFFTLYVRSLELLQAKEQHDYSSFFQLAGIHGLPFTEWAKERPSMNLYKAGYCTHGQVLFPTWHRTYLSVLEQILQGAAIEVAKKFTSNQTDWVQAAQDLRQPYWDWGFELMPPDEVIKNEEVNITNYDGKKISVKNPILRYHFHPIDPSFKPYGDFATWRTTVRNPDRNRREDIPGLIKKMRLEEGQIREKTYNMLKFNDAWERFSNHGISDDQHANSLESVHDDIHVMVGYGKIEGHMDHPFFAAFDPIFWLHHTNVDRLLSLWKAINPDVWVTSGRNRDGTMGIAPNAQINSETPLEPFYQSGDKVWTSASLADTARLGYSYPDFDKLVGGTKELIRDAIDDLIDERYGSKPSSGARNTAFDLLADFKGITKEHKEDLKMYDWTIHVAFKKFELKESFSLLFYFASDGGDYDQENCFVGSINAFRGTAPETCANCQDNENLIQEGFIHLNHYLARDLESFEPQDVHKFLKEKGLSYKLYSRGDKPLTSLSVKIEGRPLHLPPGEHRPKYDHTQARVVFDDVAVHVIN
Briefly: Inhibition of mushroom tyrosinase using L-tyrosine as substrate assessed as monophenolase activity by spectrophotometric analysis.

Data set [2] deals with T1, Tyrosinase. Briefly: Inhibition of mushroom tyrosinase using L-dopa as substrate assessed as diphenolase activity by spectrophotometric analysis.
The target of data set [3] is T2, Tyrosinase (Agaricus bisporus) (UniProt O42713).
T2 sequence (whole entry): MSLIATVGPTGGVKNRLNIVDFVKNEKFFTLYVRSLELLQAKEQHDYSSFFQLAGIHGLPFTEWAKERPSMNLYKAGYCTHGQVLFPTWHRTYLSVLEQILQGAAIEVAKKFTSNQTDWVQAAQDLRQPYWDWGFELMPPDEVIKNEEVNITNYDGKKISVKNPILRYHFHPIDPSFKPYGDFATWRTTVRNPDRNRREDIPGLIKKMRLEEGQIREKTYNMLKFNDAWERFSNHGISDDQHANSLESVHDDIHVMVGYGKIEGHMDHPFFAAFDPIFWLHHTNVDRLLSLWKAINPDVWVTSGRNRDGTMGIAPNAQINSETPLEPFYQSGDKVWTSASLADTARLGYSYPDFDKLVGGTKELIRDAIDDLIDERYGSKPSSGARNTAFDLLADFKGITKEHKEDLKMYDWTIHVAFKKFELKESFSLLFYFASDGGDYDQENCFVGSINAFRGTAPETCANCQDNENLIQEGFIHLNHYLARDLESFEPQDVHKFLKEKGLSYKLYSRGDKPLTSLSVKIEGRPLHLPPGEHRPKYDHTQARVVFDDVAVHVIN
Put plainly: Substrate activity at mushroom tyrosinase using TBC as substrate assessed as increase in TBC oxidation at 0.05 to 0.50 mM by spectrophotometric analysis.

The target of data set [4] is T2, Tyrosinase (Agaricus bisporus). Briefly: Activity of mushroom tyrosinase using TBC as substrate assessed as accumulation of p-quinone in presence of H2O2 spectrophotometric analysis.
For data set [5] the target is unchanged. Briefly: Inactivation of mushroom tyrosinase using TBC as substrate assessed as reduction in p-quinone accumulation pre-incubated at 0.3 mM for shorter time duration during 0 to 500 secs by spectrophotometric analysis.
For data set [6] the target is unchanged. Put plainly: Inactivation of mushroom tyrosinase using TBC as substrate assessed as reduction in p-quinone accumulation pre-incubated at 0.3 mM for longer time duration during 0 to 500 secs by spectrophotometric analysis.
Data set [7] has the same target. To be noted: 30 uM.
Substrate in data set [8]: CCOc1ccc(O)cc1
Briefly: (§1) Substrate activity at mushroom tyrosinase assessed as Km for monophenolase activity in presence H2O2 by spectrophotometry based Michaelis-Menten plot analysis. To be noted: Agaricus bisporus.

Substrate in data set [9]: CCc1ccc(O)cc1O
The description is as §1. To be noted: Agaricus bisporus.

Substrate in data set [10]: COc1ccc(O)cc1
The description is as §1. To be noted: Agaricus bisporus.

Substrate in data set [11]: Cc1c(O)cccc1O
Described as §1. To be noted: Agaricus bisporus.

Substrate in data set [12]: Cc1ccc(O)cc1O
Described as §1. To be noted: Agaricus bisporus.

Substrate in data set [13]: N[C@@H](Cc1ccc(O)cc1)C(=O)O
The data set is described as §1. Conditions: Agaricus bisporus.

Substrate in data set [14]: Oc1ccc(O)cc1
Described as §1. To be noted: Agaricus bisporus.

Substrate in data set [15]: Oc1cccc(O)c1
Described as §1. Conditions: Agaricus bisporus.

Substrate in data set [16]: Oc1ccccc1
The data set is described as §1. To be noted: Agaricus bisporus.

Substrate in data set [17]: CCOc1ccc(O)cc1
Briefly: (§2) Substrate activity at mushroom tyrosinase assessed as Kcat for monophenolase activity in presence H2O2 by spectrophotometry based Michaelis-Menten plot analysis. Conditions: Agaricus bisporus.

Substrate in data set [18]: CCc1ccc(O)cc1O
The description is as §2. Conditions: Agaricus bisporus.

Substrate in data set [19]: COc1ccc(O)cc1
The data set is described as §2. To be noted: Agaricus bisporus.

Substrate in data set [20]: Cc1c(O)cccc1O
The data set is described as §2. Conditions: Agaricus bisporus.

Substrate in data set [21]: Cc1ccc(O)cc1O
Described as §2. Conditions: Agaricus bisporus.

Substrate in data set [22]: N[C@@H](Cc1ccc(O)cc1)C(=O)O
Described as §2. Conditions: Agaricus bisporus.

Substrate in data set [23]: Oc1ccc(O)cc1
The data set is described as §2. Conditions: Agaricus bisporus.

Substrate in data set [24]: Oc1cccc(O)c1
The data set is described as §2. To be noted: Agaricus bisporus.

Substrate in data set [25]: Oc1ccccc1
Described as §2. Conditions: Agaricus bisporus.

Substrate in data set [26]: CCOc1ccc(O)cc1
Briefly: (§3) Substrate activity at mushroom tyrosinase assessed as Kcat/Km ratio for monophenolase activity in presence H2O2 by spectrophotometry based Michaelis-Menten plot analysis. To be noted: Agaricus bisporus.

Substrate in data set [27]: CCc1ccc(O)cc1O
The description is as §3. To be noted: Agaricus bisporus.

Substrate in data set [28]: COc1ccc(O)cc1
Described as §3. Conditions: Agaricus bisporus.

Substrate in data set [29]: Cc1c(O)cccc1O
The description is as §3. To be noted: Agaricus bisporus.

Substrate in data set [30]: Cc1ccc(O)cc1O
The description is as §3. Conditions: Agaricus bisporus.

Substrate in data set [31]: N[C@@H](Cc1ccc(O)cc1)C(=O)O
Described as §3. To be noted: Agaricus bisporus.

Substrate in data set [32]: Oc1ccc(O)cc1
Described as §3. Conditions: Agaricus bisporus.

Substrate in data set [33]: Oc1cccc(O)c1
The data set is described as §3. To be noted: Agaricus bisporus.

Substrate in data set [34]: Oc1ccccc1
The data set is described as §3. To be noted: Agaricus bisporus.

Consider `Cc1c(O)cccc1O`, for which the IC50 (usually the concentration needed to halve the response being measured) on Tyrosinase [1] was determined as 1420 µM; at Tyrosinase [2], 717 µM. Further, the result in data set [3] and in data set [4] was Active.
Take `Cc1ccc(O)cc1O`: the results for the half-maximal inhibitory concentration (IC50) on Tyrosinase [1] and on Tyrosinase [2] were 9.31 µM and 3.3 µM, respectively. In addition, in [4], the outcome was Active. In data set [5], the inhibition result was “Active”. Moreover, the inhibition result in data set [6] is “inactive”.
As for `CCc1ccc(O)cc1O`, the IC50 on Tyrosinase [1] was determined as 1.9 µM; at Tyrosinase [2], 1.1 µM. In addition, the result in [3] and in data set [4] was Active. The inhibition result in data set [5] is “Active”. For the same molecule, the inhibition entry in [6] and in [7] was “inactive” in each case.
Regarding `Oc1cccc(O)c1` [RESORCINOL], the figures for the IC50 at Tyrosinase [1] and on Tyrosinase [2] were 1130 µM and 652 µM, respectively. Moreover, the result in [3] and in data set [4] was Active. The inhibition result in [5] is “Active”. In addition, in data set [6], the inhibition entry was “inactive”.

B1: Tyrosinase (Agaricus bisporus), O42713 (protein)
chain: MSLIATVGPTGGVKNRLNIVDFVKNEKFFTLYVRSLELLQAKEQHDYSSFFQLAGIHGLPFTEWAKERPSMNLYKAGYCTHGQVLFPTWHRTYLSVLEQILQGAAIEVAKKFTSNQTDWVQAAQDLRQPYWDWGFELMPPDEVIKNEEVNITNYDGKKISVKNPILRYHFHPIDPSFKPYGDFATWRTTVRNPDRNRREDIPGLIKKMRLEEGQIREKTYNMLKFNDAWERFSNHGISDDQHANSLESVHDDIHVMVGYGKIEGHMDHPFFAAFDPIFWLHHTNVDRLLSLWKAINPDVWVTSGRNRDGTMGIAPNAQINSETPLEPFYQSGDKVWTSASLADTARLGYSYPDFDKLVGGTKELIRDAIDDLIDERYGSKPSSGARNTAFDLLADFKGITKEHKEDLKMYDWTIHVAFKKFELKESFSLLFYFASDGGDYDQENCFVGSINAFRGTAPETCANCQDNENLIQEGFIHLNHYLARDLESFEPQDVHKFLKEKGLSYKLYSRGDKPLTSLSVKIEGRPLHLPPGEHRPKYDHTQARVVFDDVAVHVIN
Turning to B1, the Km (in general, the concentration of substrate that gives half-maximal velocity) was found to be 170 µM in [8]; 117 µM in [9]; 80 µM in [10]; 2700 µM in data set [11]; 203 µM in data set [12]; 210 µM in data set [13]. Also, the Michaelis constant (Km) in [14] was determined as 920 µM; in data set [15], 460 µM; in data set [16] it was 700 µM. Moreover, the catalytic constant (kcat) (as a rule, the maximal rate divided by the concentration of active sites) in data set [17] turned out to be 132 s⁻¹; in data set [18], 6 s⁻¹; in data set [19], 184 s⁻¹; in data set [20], 9.94 s⁻¹; in data set [21] it was 7.73 s⁻¹; in data set [22], 7.9 s⁻¹. Moreover, the kcat in [23] was 102 s⁻¹; in data set [24], 18.3 s⁻¹; in data set [25], 12.7 s⁻¹. The kcat/Km (in general, the turnover number divided by the Michaelis constant) amounted to 776000 M⁻¹ s⁻¹ in [26]; 51300 M⁻¹ s⁻¹ in data set [27]; 2.3e+06 M⁻¹ s⁻¹ in data set [28]; 3700 M⁻¹ s⁻¹ in data set [29]; 38100 M⁻¹ s⁻¹ in data set [30]; 37600 M⁻¹ s⁻¹ in data set [31]. The values for the catalytic efficiency (kcat/Km) in [32], in [33] and in data set [34] were 110000 M⁻¹ s⁻¹, 39900 M⁻¹ s⁻¹ and 18100 M⁻¹ s⁻¹, respectively.
